Target: HdaB-dsA (donor strand complemented HdaB: HdaB residues 1-119, 14-residue linker, HdaA residues 1-10) (Escherichia coli (enteroaggregative, EAEC))
Assay: SEC; Superdex-75 gel filtration in 50 mM NaOAc pH 5.0, 200 mM NaCl, last step of purification after refolding; monomer (17.5 kDa) and dimer (35 kDa) peaks

HdaB-dsA (donor strand complemented HdaB: HdaB residues 1-119, 14-residue linker, HdaA residues 1-10)
stoichiometry N: 2

— paper PMC5029526
